Measured values taken from paper PMC10213502, “ICA69 regulates activity-dependent synaptic strengthening and learning and memory” (Frontiers in Molecular Neuroscience, 2023).

Biological target: T1, GFP-tagged PICK1 (UniProt Q9EP80 1-416)
T1 construct: construct as previously described (Cao et al., 2007); also called GFP-PICK1; source: HEK293T, transfected, in lysate
Experiment: co-IP; HEK cells co-transfected with the GFP-tagged bait and both myc-tagged proteins; IP with GFP antibody (normal rabbit serum as control), myc blot; IP signals normalised to input; lysis buffer 1% NP-40, 200 mM NaCl, 20 mM HEPES pH 7.4; 4°C
Settings: partners not purified

T1 sequence (Q9EP80 whole entry): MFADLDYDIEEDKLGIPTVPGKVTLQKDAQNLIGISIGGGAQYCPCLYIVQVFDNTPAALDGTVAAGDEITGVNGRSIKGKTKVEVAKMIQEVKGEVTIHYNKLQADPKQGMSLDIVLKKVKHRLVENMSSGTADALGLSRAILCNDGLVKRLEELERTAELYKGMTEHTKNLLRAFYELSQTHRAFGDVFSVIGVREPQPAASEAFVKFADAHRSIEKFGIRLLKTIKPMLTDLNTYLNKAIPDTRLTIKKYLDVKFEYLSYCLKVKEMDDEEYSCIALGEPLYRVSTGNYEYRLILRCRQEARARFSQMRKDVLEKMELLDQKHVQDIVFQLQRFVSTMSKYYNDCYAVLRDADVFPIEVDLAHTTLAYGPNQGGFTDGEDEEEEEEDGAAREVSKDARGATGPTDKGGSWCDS

B1: myc-tagged ICA69 (full-length) (natural protein, UniProt Q63054 1-480, looked up)
chain: MSGHKCYSWELQDRFAQDKSVVNKMQQKYWETKQAFIKATGKKEDEHVVASDADLDAKLELFHSIQRTCLDLSKAIVLYQKRICFLSQEENELGKFLRSQGFQDKTRAGKMMQATGKALCFSSQQRLALRNPLCRFHQEVETFRHRAISDTWLTVNRMEQCRTEYRGALLWMKDVSQELDPDLYKQMEKFRKVQTQVRLAKKNFDKLKMDVCQKVDLLGASRCNLLSHMLATYQTTLLHFWEKTSHTMAAIHESFKGYQPYEFTTLKSLQDPMKKLVEKEKKKSSRRENREAVAQEPRQLISLEEENQHKESSTCQKEEGKSVPSSVDKSSADDACSGPIDELLDVKPEEACLGPMAGTPEPESGDKDDLLLLNEIFSTSSLDEGEFSREWAAVFGDDRLKEPAPMGAQGEPDPKPQIGSAFLPSQLLDQNMKDLQASLQEPAKAASDLTAWFSLFADLDPLSNPDAIGKTDKEHELLNA
notes: ICA69 (islet cell autoantigen of 69 kDa), myc-tagged full-length made by overlap extension PCR; The same protein as m1, with another tag; also called myc-ICA69; source: HEK293T, transfected, in lysate
  heteromer/homomer ratio (myc-ICA69 over myc-PICK1 in the IP of GFP-PICK1): 19 ratio
